Consider nine molecules from US20060148038A1 (INST NAT L DE LA SANTE ET DE LA RECH MEDICALE, published 2006).

Targets include GDX-SVG (zymogen) (UniProt P00742); GDX-IFG (zymogen) (UniProt P00742); GDX-IVG (zymogen) (UniProt P00742); FX-recombinant (zymogen) (UniProt P00742); GDX-AVG (zymogen) (UniProt P00742); GDX-SFR (zymogen) (UniProt P00742).
The target of data set [1] is D-Phe-Phe-Arg-CH3Cl. Put plainly: inactivation kinetics: residual amidolytic activity on S2765 after incubation with D-FFR-CK, pseudo-first order, 25° C.
Data set [2] concerns the target T1, antithrombin (purified from human plasma) (human, UniProt P01008 33-464).
T1 construct: mature
In words: inhibition kinetics, continuous S2765 hydrolysis, second-order (slow tight-binding) conditions, 2 units/ml heparin, 25° C. How it is done:
The kinetics are studied at 25° C., in kinetics buffer containing 1 mg/ml of protease-free bovine albumin and 2 units per ml of heparin; they are followed continuously by virtue of the presence in the reaction medium of 400 μM S2765. The reaction is carried out in a microcuvette in a volume of 600 μl, following the kinetics using a lambda 14 spectrophotometer. The reaction is triggered by adding the minimum amount of activated form of the factor X derivative which is compatible with a reliable signal (1 to 2.5 nM depending on the derivative, such that, in the absence of inhibitor, approximately 10% of the chromogenic substrate is hydrolysed in 60 minutes). For each activated form of factor X derivative, the reaction is carried out in the presence of two concentrations of antithrombin, equal to 2 and 3 times the concentration of the target. By plotting the absorbance at 405 nm as a function of time, a curve is obtained which makes it possible, by non-linear regression using equation 6, to estimate the second-order rate constant for the reaction. The kₒₙ of the antithrombin for the activated form of the factor X derivative is given by equation 5 which takes into consideration the competition introduced by the substrate during the kinetics.

Data set [3] concerns the target T1, antithrombin (purified from human …). In words: inhibition kinetics, continuous S2765 hydrolysis, pseudo-first order, no heparin, 25° C. The source says:
The method by continuous recording of the absorbance at 405 nm under pseudo-first order conditions is used to estimate (in the absence of heparin) the kₒₙ of the antithrombin for the activated form of the factor X derivative lacking Gla domain, and those of the activated forms of the GDX-IVG and GDX-IFG derivatives.

Data set [4] concerns the target prothrombin (immunopurified).
Data set [5] addresses T1, antithrombin (purified from human …). Put plainly: SDS-PAGE of covalent complexes, 1 µM derivative, 2 µM antithrombin, 2 units/ml heparin. The procedure:
(§1) The incubation is sustained for one hour at 25° C., and the reaction mixture is analysed by polyacrylamide gel electrophoresis (10%, crosslinking 29/1), after denaturation and reduction of the sample. After staining with Coomassie blue, the presence of covalent complexes between the (inactivated) form of the factor X derivative and the antithrombin results in a decrease in the intensity of the band corresponding to antithrombin (60 kDa), a decrease in the intensity of the band corresponding to the activated form of the factor X derivative (31 kDa), and the appearance of a new band of higher molecular weight (approximately 100 kDa) corresponding to the covalent complex.

For data set [6] the target is unchanged. Put plainly: inhibition kinetics, batchwise residual amidolytic activity on S2765, pseudo-first order, 2 units/ml heparin, 25° C. The procedure:
The method by batchwise sampling of aliquots is used to estimate the kₒₙ of the antithrombin for the activated form of the GDX-AVG derivative (in the presence and the absence of heparin).
The reaction is carried out in kinetics buffer containing 1 mg/ml of protease-free bovine albumin (SIGMA, St Quentin-Fallavier, France) and, when appropriate, 2 units per ml of heparin (KORDIA). In a reaction volume of 10 μl, a sufficient amount of the activated form of the GDX-AVG derivative (0.5 μM in the presence of heparin, 1 μM in its absence) is incubated in the presence of a large excess of antithrombin (5 μM in the presence of heparin, 10 μM in its absence), for a varying amount of time at 25° C. The same experiment is repeated twelve times, varying the incubation time from one experiment to another (from 10 seconds for the first to 5 hours for the last, such that the incubation time for a given experiment is equal to double that of the preceding one). At the end of each incubation, 190 μl of S2765 (200 μM in kinetics buffer) are added, and the residual amidolytic activity is measured by recording the variation in the absorbance at 405 nm as a function of time (i.e. the initial rate of hydrolysis of the S2765) using an MR5000 microplate reader. […]

Data set [7] has as its target D-Phe-Phe-Arg-CH3Cl. In words: inactivation kinetics with D-FFR-CK, residual amidolytic activity on S2765.
The target in data set [8] is T1, antithrombin (purified from human …). Put plainly: inhibition kinetics with antithrombin, no heparin.
For data set [9] the target is unchanged. Put plainly: SDS-PAGE with Coomassie blue after incubation with antithrombin and heparin. The procedure:
as §1

Positions count from the first letter of the chain named.

T1 sequence (P01008 33-464): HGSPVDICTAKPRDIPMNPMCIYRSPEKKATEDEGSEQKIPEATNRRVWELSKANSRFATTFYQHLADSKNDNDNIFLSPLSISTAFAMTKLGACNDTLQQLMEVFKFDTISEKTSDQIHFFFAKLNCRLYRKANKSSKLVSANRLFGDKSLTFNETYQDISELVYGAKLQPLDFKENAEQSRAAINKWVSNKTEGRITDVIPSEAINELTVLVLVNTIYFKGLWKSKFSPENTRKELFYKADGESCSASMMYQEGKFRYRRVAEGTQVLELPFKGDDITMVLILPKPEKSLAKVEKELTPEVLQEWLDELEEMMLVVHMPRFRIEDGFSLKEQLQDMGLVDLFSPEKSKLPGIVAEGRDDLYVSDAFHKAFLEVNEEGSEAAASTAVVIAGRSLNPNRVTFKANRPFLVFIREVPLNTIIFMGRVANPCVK

Take thrombin: the kcat/Km (M^-1 s^-1) for the activation of the factor X derivative by thrombin was < 1 M⁻¹ s⁻¹ with GDX-SVG (zymogen); < 1 M⁻¹ s⁻¹ with GDX-IFG (zymogen); < 1 M⁻¹ s⁻¹ with GDX-IVG (zymogen); 1 10^2 (±9%) with GDX-AVG (zymogen); 4 10^3 (±27%) with GDX-SFR (zymogen). The “cleavage of the factor X derivative by thrombin” value with FX-recombinant (zymogen) was “the FX-recombinant is not detectably cleavable by thrombin (ND)”.

In turn, “activated form of the factor X from plasma (from UniProt P00742 41-179; P00742 235-488) (enzyme)” gave a kon in the data set with D-Phe-Phe-Arg-CH3Cl [1] of 2300 M⁻¹ s⁻¹.

B1: activated form of the GDX-IVG derivative (enzyme, human)
light: EDQVDPRLIDGKDGDQCETSPCQNQGKCKDGLGEYTCTCLEGFEGKNCELFTRKLCSLDNGDCDQFCHEEQNSVVCSCARGYTLADNGKACIPTGPYPCGKQTLER
heavy: IVGGQECKDGECPWQALLINEENEGFCGGTILSEFYILTAAHCLYQAKRFKVRVGDRNTEQEEGGEAVHEVEVVIKHNRFTKETYDFDIAVLRLKTPITFRMNVAPACLPERDWAESTLMTQKTGIVSGFGRTHEKGRQSTRLKMLEVPYVDRNSCKLSSSFIITQNMFCAGYDTKQEDACQGDSGGPHVTRFKDTYFVTGIVSWGEGCARKGKYGIYTKVTAFLKWIDRSMKTRGLPKAKSHAPEVITSSPLKEQKLISEEDLN
notes: domain: two EGF domains;domain: catalytic domain
Turning to B1, the kon in data set [2] turned out to be 2e+07 M⁻¹ s⁻¹; with D-Phe-Phe-Arg-CH3Cl [1] it was 2250 M⁻¹ s⁻¹; in data set [3], 5800 M⁻¹ s⁻¹. In addition, the “coefficient of acceleration of pNA release by the thrombin generated by the prothrombinase complex (+factor Va)” value (from here on “coefficient of acceleration … (+factor Va)”) with factor Va (KORDIA) was 1.1 10^-4 (±1%). Also, in the data set with factor Va (KORDIA), the “fold increase of the rate of activation of the prothrombin on addition of factor Va” value was “the addition of factor Va increases the rate of activation of the prothrombin 50-fold and 10-fold respectively”. Besides, the “coefficient of acceleration of pNA release by the thrombin generated by the activated factor X derivative alone (-factor Va)” value (“coefficient of acceleration … (-factor Va)” for short) in data set [4] is recorded as 2.8 10^-5 (±2%).

B2: activated form of the GD-FX derivative (enzyme, human)
light: B1 light
heavy: B1 heavy
notes: as for B1
Turning to B2, the kon in data set [2] worked out at 1.3e+07 M⁻¹ s⁻¹; in the data set with D-Phe-Phe-Arg-CH3Cl [1], 2230 M⁻¹ s⁻¹; in [3], 12000 M⁻¹ s⁻¹. Also, in the data set with factor Va (KORDIA), the “coefficient of acceleration … (+factor Va)” value was 4.2 10^-4 (±2%). Further, in the data set with factor Va (KORDIA), the “fold increase of the rate of activation of the prothrombin on addition of factor Va” value was “the addition of factor Va increases the rate of activation of the prothrombin 50-fold and 10-fold respectively”. Besides, the “coefficient of acceleration … (-factor Va)” value in [4] is reported as 8.8 10^-6 (±2%).

B3: activated form of the GDX-SVG derivative (enzyme, human)
light: B1 light
heavy: B1 heavy with I1S
notes: as for B1
For B3, in [5], the binding result was “binds”.

B4: activated form of the GDX-AVG derivative (enzyme, human)
light: B1 light
heavy: B1 heavy with I1A
notes: as for B1
As to B4, in data set [6], the kon worked out at 300 M⁻¹ s⁻¹. In the data set with factor Va (KORDIA), the “coefficient of acceleration … (+factor Va)” value is given as 3.1 10^-5 (±1%) and the “rate of activation of the prothrombin with factor Va, against the non-mutated homologue (GDX-IVG)” value is reported as “this is now only 13 times less than that obtained for the activated form of its non-mutated homologue (GDX-IVG)”. Also, the “coefficient of acceleration … (-factor Va)” value in [4] is 9.6 10^-7 (±2%). In the data set with D-Phe-Phe-Arg-CH3Cl [7], this molecule came in with a fold decrease of kon against the activated form of the factor X from plasma of 1000 times less. Besides, the “fold decrease of kon against its non-mutated homologue (no heparin)” value in data set [8] is > 1000 times less.

B5: activated form of the GDX-SFR derivative (enzyme, human)
light: B1 light
heavy: B1 heavy with I1S, V2F, G3R
notes: as for B1
With B5, the binding result in data set [9] was “no binding”.

B6: activated form of the GDX-IFG derivative (enzyme, human)
light: B1 light
heavy: B1 heavy with V2F
notes: domain: two EGF domains;domain: catalytic domain; Position 236 counted from the printed Ile235 = P1′
Regarding B6, the kon in data set [2] came out at 760000 M⁻¹ s⁻¹; in data set [3] it was 180 M⁻¹ s⁻¹. Further, the “coefficient of acceleration … (+factor Va)” value with factor Va (KORDIA) is reported as 4.9 10^-6 (±1%). In addition, the “coefficient of acceleration … (-factor Va)” value in [4] is given as 1.0 10^-7 (±2%). In addition, the fold decrease of kon against the activated form of the factor X from plasma with D-Phe-Phe-Arg-CH3Cl [7] stood at 20 times lower. Moreover, in data set [8], the “fold decrease of kon against the non-mutated activated forms (no heparin)” value worked out at 66 times smaller.

B7: activated form of the GDX-IFR derivative (enzyme, human)
light: B1 light
heavy: B1 heavy with V2F, G3R
notes: as for B1
For B7, the binding result in data set [5] is on record as “binds”. In the data set with factor Va (KORDIA), the “coefficient of acceleration … (+factor Va)” value is given as 3.3 10^-6 (±1%).

A word on the kon: it is the rate constant with which the complex forms.
